In patent publication US20240166765A1 (ICONIC THERAPEUTICS, published 2024):

Key:
relipidated TF [1] = biological target: T1, relipidated TF (UniProt P13726 33-295, limits assumed); assay: cell-based or functional assay
human TF ECD-His6 [2] = biological target: T2, human TF ECD-His6 (human, UniProt P13726 33-251); assay: BLI (ForteBio Octet)
T2 construct: made in Expi293 cells; the entry holds the ECD with the C-terminal TG-His6; also called TF-His; hTF

cynomolgus TF ECD-His6 [3] = biological target: T3, cynomolgus TF ECD-His6 (cynomolgus monkey (Macaca fascicularis)); assay: BLI (ForteBio Octet)
T3 construct: made in Expi293 cells; also called TF-His; cTF
T3 chain: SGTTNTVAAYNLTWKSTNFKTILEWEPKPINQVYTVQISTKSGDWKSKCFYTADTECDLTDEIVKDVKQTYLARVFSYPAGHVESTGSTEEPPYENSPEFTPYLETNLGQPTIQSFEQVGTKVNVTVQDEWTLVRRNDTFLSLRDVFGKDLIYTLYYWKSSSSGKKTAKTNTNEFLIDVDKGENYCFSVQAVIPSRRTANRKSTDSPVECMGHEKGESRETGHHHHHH

mouse TF ECD-His6 = biological target: T4, mouse TF ECD-His6 (mouse, UniProt P20352 29-251); assay: BLI (ForteBio Octet)
T4 construct: made in Expi293 cells; also called TF-His; mTF

human TF ECD-His6 [4] = biological target: T2, human TF ECD-His6; assay: SPR (Biacore), antibody on chip, TF-His titrated
cynomolgus TF ECD-His6 [5] = biological target: T3, cynomolgus TF ECD-His6; assay: SPR (Biacore), antibody on chip, TF-His titrated
[6] = biological target: rTF (rat TF) on HEK293 cells (rat, UniProt P42533 29-252); assay: live cell staining of transfected HEK293, flow cytometry
rTF (rat TF) on HEK293 cells, sequence (P42533 29-252): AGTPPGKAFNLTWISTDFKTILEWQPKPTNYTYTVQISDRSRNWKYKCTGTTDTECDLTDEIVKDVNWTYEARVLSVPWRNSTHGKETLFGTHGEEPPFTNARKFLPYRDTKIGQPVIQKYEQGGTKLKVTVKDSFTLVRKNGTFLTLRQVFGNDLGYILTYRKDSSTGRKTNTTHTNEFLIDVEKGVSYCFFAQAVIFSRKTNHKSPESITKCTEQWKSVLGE

relipidated TF [7] = biological target: T1, relipidated TF; assay: cell-based or functional assay; remark: listed apart in the source
pig TF-His = biological target: T5, pig TF-His (pig (Sus scrofa)); assay: SPR (Biacore), antibody captured by anti-human IgG on CM5 chip, pig TF-His in solution, 1:1 model
T5 construct: also called pig TF ECD-His; pTF
T5 chain: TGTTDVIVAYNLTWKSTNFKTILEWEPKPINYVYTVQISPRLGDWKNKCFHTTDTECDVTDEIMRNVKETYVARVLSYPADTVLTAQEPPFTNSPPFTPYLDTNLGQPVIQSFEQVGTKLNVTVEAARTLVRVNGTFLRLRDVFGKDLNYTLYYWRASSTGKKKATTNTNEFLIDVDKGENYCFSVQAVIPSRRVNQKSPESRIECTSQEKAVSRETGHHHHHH

B1: 5G9 (antibody, V domains shown)
VH: QVQLVESGGGVVQPGRSLRLSCKASGFNIKDYYMHWVRQAPGKGLEWIGLIDPENGNTIYDPKFQGRFTISADNSKNTLFLQMDSLRPEDTAVYYCARDNSYYFDYWGQGTPVTVSS
VL: DIQMTQSPSSLSASVGDRVTITCKASQDIRKYLNWYQQKPGKAPKLLIYYATSLADGVPSRFSGSGSGTDYTFTISSLQPEDIATYYCLQHGESPYTFGQGTKLEIT
Relipidated TF [1]
  decrease of peak IIa concentration, TGA with 10 min pre-incubation, 100 nM Ab: 92%
  decrease of peak IIa concentration, TGA without pre-incubation, 100 nM Ab: 92%

B2: 43B (antibody, human IgG1, V domains shown)
VH: QVQLQESGPGLVKPSQTLSLTCTVSGGSISSGQYWSWIRQHPGKGLEWIGEIYYSGSTRYNPSLKSRVTISVDTSKNQFSLKLSSVTAADTAVYYCARDAPYYYGGGYYYYMDVWGKGTTVTVSS
VL: EIVLTQSPGTLSLSPGERATLSCRASQSVSSSYLAWYQQKPGQAPRLLIYGASSRATGIPDRFSGSGSGTDFTLTISRLEPEDFAVYYCQQVGVVPYTFGGGTKVEIK
notes: human IgG1
Human TF ECD-His6 [2]
  Kd: 2.4 nM
Cynomolgus TF ECD-His6 [3]
  Kd: 3.4 nM
Mouse TF ECD-His6
  Kd: 161 nM
Human TF ECD-His6 [4]
  Kd: 1.75 nM
Cynomolgus TF ECD-His6 [5]
  Kd: 5.64 nM

B3: 43D (antibody, human IgG1, V domains shown)
VH: QVQLQQWGAGLLKPSETLSLTCAVYGGSLSGYYWSWIRQPPGKGLEWIGEIGASGSTRYNPSLKSRVTISVDTSKNQFSLKLSSVTAADTAVYYCARDTPYYYEGGYYYYMDVWGKGTTVTVSS
VL: EIVLTQSPGTLSLSPGERATLSCRASQSVSSSYLAWYQQKPGQAPRLLIYGASSRATGIPDRFSGSGSGTDFTLTISRLEPEDFAVYYCQQVGVVPYTFGGGTKVEIK
notes: human IgG1
Human TF ECD-His6 [2]
  Kd: 3.84 nM
Cynomolgus TF ECD-His6 [3]
  Kd: 4.12 nM
Mouse TF ECD-His6
  Kd: 281 nM
Human TF ECD-His6 [4]
  Kd: 2.09 nM
Cynomolgus TF ECD-His6 [5]
  Kd: 5.66 nM

B4: 43B7 (antibody, human IgG1, V domains shown)
VH: QVQLQESGPGLVKPSQTLSLTCTVSGGSISSGQYWSWIRQHPGKGLEWIGEIYYSGSTRYNPSLKSRVTISVDTSKNQFSLKLSSVTAADTAVYYCARDAPYYYGGGYYYYMDVWGKGTTVTVSS
VL: EIVLTQSPGTLSLSPGERATLSCRASESVDSSYLAWYQQKPGQAPRLLIYGADSRATGIPDRFSGSGSGTDFTLTISRLEPEDFAVYYCQQDGVVPYTFGGGTKVEIK
notes: human IgG1
Human TF ECD-His6 [2]
  Kd: 0.86 nM
Cynomolgus TF ECD-His6 [3]
  Kd: 0.94 nM
Mouse TF ECD-His6
  Kd: 360 nM
Human TF ECD-His6 [4]
  Kd: 0.14 nM
Cynomolgus TF ECD-His6 [5]
  Kd: 0.24 nM

B5: TF-011 (antibody, V domains shown)
VH: EVQLLESGGGLVQPGGSLRLSCAASGFTFSNYAMSWVRQAPGKGLEWVSSISGSGDYTYYTDSVKGRFTISRDNSKNTLYLQMNSLRAEDTAVYYCARSPWGYYLDSWGQGTLVTVSS
VL: DIQMTQSPPSLSASAGDRVTITCRASQGISSRLAWYQQKPEKAPKSLIYAASSLQSGVPSRFSGSGSGTDFTLTISSLQPEDFATYYCQQYNSYPYTFGQGTKLEIK
notes: previously described anti-TF antibody
Relipidated TF [1]
  decrease of peak IIa concentration, TGA with 10 min pre-incubation, 100 nM Ab: 91%
  decrease of peak IIa concentration, TGA without pre-incubation, 100 nM Ab: 91%
[6]
  binding result: no binding (tested: 15 µg/ml (100 nM))

B6: 1F (antibody, human IgG1, V domains shown)
VH: EVQLLESGGGLVQPGGSLRLSCAASGFTFSDYAMGWVRQAPGKGLEWVSTISGSGGLTYYADSVKGRFTISRDNSKNTLYLQMNSLRAEDTAVYYCAKAPYGYYMDVWGKGTTVTVSS
VL: not shown
notes: human IgG1
Relipidated TF [1]
  decrease of peak IIa concentration, TGA with 10 min pre-incubation, 100 nM Ab: 93%
  decrease of peak IIa concentration, TGA without pre-incubation, 100 nM Ab: 92%
Human TF ECD-His6 [2]
  Kd: 1.28 nM
Cynomolgus TF ECD-His6 [3]
  Kd: 1.43 nM
Relipidated TF [7]
  TGA without pre-incubation, 10 nM Ab: % ETP: 58%
  TGA without pre-incubation, 10 nM Ab: % Peak IIa: 21%
  TGA without pre-incubation, 10 nM Ab: ETP: 1400 nM·min
  TGA without pre-incubation, 10 nM Ab: Lag Time: 12.1 min
  TGA without pre-incubation, 10 nM Ab: Peak IIa: 83 nM
  TGA without pre-incubation, 10 nM Ab: ttPeak: 19.8 min
  TGA without pre-incubation, 50 nM Ab: % Peak IIa: 8%
  TGA without pre-incubation, 50 nM Ab: Lag Time: 27.2 min
  TGA without pre-incubation, 50 nM Ab: Peak IIa: 32 nM
  TGA without pre-incubation, 50 nM Ab: ttPeak: 36.8 min
  TGA without pre-incubation, 100 nM Ab: % Peak IIa: 7%
  TGA without pre-incubation, 100 nM Ab: Lag Time: 25.9 min
  TGA without pre-incubation, 100 nM Ab: Peak IIa: 29 nM
  TGA without pre-incubation, 100 nM Ab: ttPeak: 37.9 min
Human TF ECD-His6 [4]
  Kd: 0.31 nM
Cynomolgus TF ECD-His6 [5]
  Kd: 0.26 nM
[6]
  binding result: no binding (tested: 15 µg/ml (100 nM))

B7: 29E (antibody, human IgG1, V domains shown)
VH: QVQLVESGGGVVQPGRSLRLSCAASGFTFRSYGMHWVRQAPGKGLEWVAVITYDGINKYYADSVEGRFTISRDNSKNTLYLQMNSLRAEDTAVYYCARDGVYYGVYDYWGQGTLVTVSS
VL: not shown
notes: human IgG1
Human TF ECD-His6 [2]
  Kd: 2.32 nM
Cynomolgus TF ECD-His6 [3]
  Kd: 15 nM
Human TF ECD-His6 [4]
  Kd: 0.47 nM
Cynomolgus TF ECD-His6 [5]
  Kd: 5.06 nM
[6]
  binding result: no binding (tested: 15 µg/ml (100 nM))

B8: 25A5 (antibody, human IgG1, kappa, V domains shown)
VH: QVQLVQSGAEVKKPGASVKVSCKASGYTFDVYGISWVRQAPGQGLEWMGWIAPYSGNTNYAQKLQGRVTMTTDTSTSTAYMELRSLRSDDTAVYYCARDAGTYSPFGYGMDVWGQGTTVTVSS
VL: DIQMTQSPSTLSASVGDRVTITCRASESISNWLAWYQQKPGKAPKLLIYKAYSLEYGVPSRFSGSGSGTEFTLTISSLQPDDFATYYCQQFQKLPPFTFGGGTKVEIKR
notes: human IgG1
Human TF ECD-His6 [2]
  Kd: 0.64 nM
Mouse TF ECD-His6
  Kd: 188 nM
Human TF ECD-His6 [4]
  Kd: 0.08 nM
Cynomolgus TF ECD-His6 [5]
  Kd: 0.04 nM

B9: 25G (antibody, human IgG1, kappa, V domains shown)
VH: QVQLVQSGAEVKKPGASVKVSCKASGYTFRSYGISWVRQAPGQGLEWMGWVAPYNGNTNYAQKLQGRVTMTTDTSTSTAYMELRSLRSDDTAVYYCARDAGTYSPYGYGMDVWGQGTTVTVSS
VL: DIQMTQSPSTLSASVGDRVTITCRASQSISSWLAWYQQKPGKAPKLLIYKASSLESGVPSRFSGSGSGTEFTLTISSLQPDDFATYYCQQFQSLPPFTFGGGTKVEIKR
notes: human IgG1
Human TF ECD-His6 [2]
  Kd: 21.9 nM
Cynomolgus TF ECD-His6 [3]
  Kd: 17.5 nM
Mouse TF ECD-His6
  Kd: 114 nM
Human TF ECD-His6 [4]
  Kd: 23 nM
Cynomolgus TF ECD-His6 [5]
  Kd: 18 nM

B10: 25A5-T (antibody, human IgG1, kappa, V domains shown)
VH: QVQLVQSGAEVKKPGASVKVSCKASGYTFDAYGISWVRQAPGQGLEWMGWIAPYSGNTNYAQKLQGRVTMTTDTSTSTAYMELRSLRSDDTAVYYCARDAGTYSPFGYGMDVWGQGTTVTVSS
VL: DIQMTQSPSTLSASVGDRVTITCRASESISNWLAWYQQKPGKAPKLLIYKAYSLEYGVPSRFSGSGSGTEFTLTISSLQPDDFATYYCQQFQKLPPFTFGGGTKVEIKR
notes: human IgG1
[6]
  binding result: no binding (tested: 15 µg/ml (100 nM))

B11: 25A3 (antibody, human IgG1, kappa, V domains shown)
VH: QVQLVQSGAEVKKPGASVKVSCKASGYTFDVYGISWVRQAPGQGLEWMGWIAPYSGNTNYAQKLQGRVTMTTDTSTSTAYMELRSLRSDDTAVYYCARDAGTYSPFGYGMDVWGQGTTVTVSS
VL: DIQMTQSPSTLSASVGDRVTITCQASQSINNWLAWYQQKPGKAPKLLIYKAYNLESGVPSRFSGSGSGTEFTLTISSLQPDDFATYYCQLFQSLPPFTFGGGTKVEIKR
notes: Human IgG1; also called antibody 25A3
Pig TF-His
  Kd: 5.5 nM

B12: M1593 (antibody, V domains shown)
VH: EVQLVQSGAEVKKPGESLRISCKGSGYTFAPYWIEWVRQMPGKGLEWMGDILPGTGFTTYSPSFQGHVTISADKSISTAYLQWSSLKASDTAMYYCARSGYYGNSGFAYWGQGTLVTVSS
VL: DIVMTQTPLSLPVTPGEPASISCKSSQSLLSSGNQKNYLTWYLQKPGQSPQLLIYWASTRESGVPDRFSGSGSGTDFTLKISRVEAEDVGVYYCQNDYTYPLTFGQGTKLEIK
notes: also called 10H10; 10H10 (M1593)
[6]
  binding result: no binding (tested: 15 µg/ml (100 nM))

B13: 54E (antibody, human IgG1, V domains shown)
VH: QVQLVQSGAEVKKPGASVKVSCKASGYTFANYYMHWVRQAPGQGLEWMGIINPSGGITVYAQKFQGRVTMTRDTSTSTVYMELSSLRSEDTAVYYCARGGSKVAALAFDIWGQGTMVTVSS
VL: DIQMTQSPSSLSASVGDRVTITCQASQDISNSLNWYQQKPGKAPKLLIYDASNLETGVPSRFSGSRSGTDFTFTISSLQPEDIATYYCQQYNFHPLTFGGGTKVEIK
notes: human IgG1
Human TF ECD-His6 [2]
  Kd: 1.59 nM
Cynomolgus TF ECD-His6 [3]
  Kd: 4.16 nM
Human TF ECD-His6 [4]
  Kd: 0.42 nM
Cynomolgus TF ECD-His6 [5]
  Kd: 1.83 nM
[6]
  binding result: no binding (tested: 15 µg/ml (100 nM))
